This series deals with the molecule itself. Put plainly: non-reducing SDS gel electrophoresis (silver stain and western blot); purified GzmA run under non-reducing conditions; homodimer at ~50 kDa and polymers of it. Background: Immunoblotting shows a protein as a band on a membrane.

B1: Native human Granzyme A (enzyme, UniProt P12544 29-262, looked up)
chain: IIGGNEVTPHSRPYMVLLSLDRKTICAGALIAKDWVLTAAHCNLNKRSQVILGAHSITREEPTKQIMLVKKEFPYPCYDPATREGDLKLLQLMEKAKINKYVTILHLPKKGDDVKPGTMCQVAGWGRTHNSASWSDTLREVNITIIDRKVCNDRNHYNFNPVIGMNMVCAGSLRGGRDSCNGDSGSPLLCEGVFRGVTSFGLENKCGDPRGPGVYILLSKKHLNWIIMTIKGAV
notes: Granzyme A (GzmA), native human protein, commercially obtained; Some monomer at ~25 kDa is seen beside the homodimer; also called NhGzmA; native GzmA; source: bought: TheraTest (Lombard, IL)
B1: the binding result was “binds”.

These data come from article PMC8368726, “Granzyme A Produced by γ9δ2 T Cells Activates ER Stress Responses and ATP Production, and Protects Against Intracellular Mycobacterial Replication Independent of Enzymatic Activity” (Frontiers in Immunology, 2021).
